Test results reported in article PMC4920195, “Non-Smc element 5 (Nse5) of the Smc5/6 complex interacts with SUMO pathway components” (Biology Open, 2016).

B1: Nse5-LexA (wild type) [S. cerevisiae] / Smt3-AD [S. cerevisiae] (parent complex)
chain 1: MDGALINSVLYVSPRNGAHYFVELTEKHLLAFEMLNSMCLLENYDHVLLFLECQFGKSHNLAVIPFDIILVLFTLSTLSEYYKEPILRANDPYNTSRETLSRRALKLLQKYLAILKEFDSEQYNLYDLELLRCQFFLAIDTLTPKKQKWGFDRFRRTKSESGVTYRQNASVDPELDQAKTFKNPYRSYISCLEQRNTILGNRLLNLKLNEPGEFINMILWTLSNSLQESTPLFLSSHEIWMPLLEILIDLFSCRQDYFIQHEVAQNVSKSLFVQRLSESPLAVFFESLNTRNFANRFSEYVFLNCDYKLPSDNYATPVHPVYNGENTIVDTYIPTIKCSPLYKSQKSLALRRKLIGSCFKLLLRVPDGHRLITPRIVADDVIQGISRTLASFNDILQFKKFFMTENLSQESYFIPLLAEGTLSEILKDTQECVVILTLVENLSDGVSFCNEVIGLVKSKCFAFTEQCSQASYEEAVLNIEKCDVCLLVLLRYLLHLIGTEAILDAKEQLEMLHAIEKNDSGRRQWAKALNLGNDPPLLYPIVSQMFGVHDKSVIIE
chain 2: MSDSEVNQEAKPEVKPEVKPETHINLKVSDGSSEIFFKIKKTTPLRRLMEAFAKRQGKEMDSLRFLYDGIRIQADQTPEDLDMEDNDIIEAHREQIGGATY
B2: Nse5-LexA (wild type) [S. cerevisiae] / Nse6-AD [S. cerevisiae] (parent complex)
chain 1: B1 chain 1
chain 2: MGSVNSSPNEEFETVPDSQISGFDSPLIPTSVGSYFRDDDDDEKVHPNFISDPENDSLNSDEEFSSLENSDLNLSGAKAESGDDFDPILKRTIISKRKAPSNNEDEEIVKTPRKLVNYVPLKIFNLGDSFDDTITTTVAKLQDLKKEILDSPRSNKSIVITSNTVAKSELQKSIKFSGSIPEIYLDVVTKETISDKYKDWHFISKNCHYEQLMDLEMKDTAYSFLFGSSRSQGKVPEFVHLKCPSITNLLVLFGVNQEKCNSLKINYEKKENSRYDNLCTIFPVNKMLKFLMYFYSDDDNDDVREFFLKAFICLILDRKVFNAMESDHRLCFKVLELFNEAHFINSYFEIVDKNDFFLHYRLLQIFPHLQSALLRRRFSEKQGRTETIQQNIIKEFNEFFDCKNYKNLLYFILTMYGSKFIPFGPKCQVTEYFKDCILDISNETTNDVEISILKGILNLFSKIR

Variants of: B1
Test: yeast two-hybrid (β-galactosidase); gal (induced) bar; vector bait control 7.3; parent: 1.95e+03
For chain 1 L247A, the response was 7.4 β-galactosidase activity units. For chain 1 L70A, the response was 7.8 β-galactosidase activity units. With chain 1 L70A, chain 1 L247A the response was 6.6 β-galactosidase activity units.

Variants of: B2
Test: yeast two-hybrid (β-galactosidase); gal (induced) bar; vector bait control 2.8; parent: 2.45e+03
With chain 1 L247A the response was 2570 β-galactosidase activity units. With chain 1 L70A the response was 2130 β-galactosidase activity units.

Variants of: B2
Test: yeast two-hybrid (β-galactosidase); gal (induced) bar; parent: 2.45e+03
For chain 1 Y111H, the response was 2170 β-galactosidase activity units. With chain 1 H319Y the response was 2070 β-galactosidase activity units. chain 1 N183D was tested, and the response was 2140 β-galactosidase activity units. chain 1 Y123H was tested, and the response was 2190 β-galactosidase activity units.
